The text below walks through data of the nanobody polyreactivity screen of Harvey et al. (2022).

The data set in a line: yeast display, Sf9 membrane polyspecificity reagent, FACS + sequencing; frameworks hold sequencing errors. The procedure, abridged: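 Sorting gates, low and high (top ~1%), were placed on anti-HA fluorescence to track expression and on streptavidin fluorescence to track reagent binding. A clone's polyreactivity label is taken from the gate it came out of. The reagent was 10% biotinylated, detergent-solubilized Sf9 membrane, applied for 1 hour at 4 °C to galactose-induced yeast display cells.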
As to “QVQLVESGGGLVQAGGSLRLSCAASGSTFDQYAMGWYRQAPGKDRELVAAISGSGGRTSYADSVKGRFTISRDNAKNTVYLQMNSLKPEDTAVYYCNKASYRISVPRYDYWGQGTQVTVTS”, the “polyreactivity (PSR sort gate)” value is recorded as “high polyreactivity”. With “QVQLVESGGGLVQAGGSLRLSCAASGSTFDRYAMGWYRQAPGKEREFVAAITWGGGSTYYADSVKGRFTISRDNAKNTVYLQMNSLKPEDTAVYYCATRYGATFGYWGQGTQVTVSS”, the “polyreactivity (PSR sort gate)” value is reported as “low polyreactivity”. Turning to “QVQLVESGGGLVQAGGSLRLSCAASGSTFDSYAMGWYRQAPGKEREFVAAISSCAGSSGRTSYADSVKGRFTISRDNATNTVYLQMNSLKPEDTAVYYCAKEYTLAKYREYDYWGQGTQVTVSS”, the “polyreactivity (PSR sort gate)” value was “low polyreactivity”.

As to “QVQLVESGGGLVQAGGSLRLSCAASGSTFDSYAMGWYRQAPGKERELVAAISTSGGSTYYADSVKGRFTISRDNAKNTVYLQMNSLKPEDTAVYYCAAYSISSRMNYWGQGSQVTVSS”, the “polyreactivity (PSR sort gate)” value is recorded as “high polyreactivity”.

Take “QVQLVESGGGLVQAGGSLRLSCAASGSTFDSYAMGWYRQAPGKERELVAAITTTGGSTFYADSVKGRFTISRDNAKNTVYLQMNSLKPEDTAVYYCAADDGWQEFEYWGQGTQVTVSS”: the “polyreactivity (PSR sort gate)” value is given as “low polyreactivity”. In the case of “QVQLVESGGGLVQAGGSLRLSCAASGSTFDSYAMGWYRQAPGKERELVAAITTTGGSTFYADSVKGRFTISRDNAKNTVYLQMNSLKPEDTAVYYCADDDGWQEFEYWGQGTQVTVSS” it was “low polyreactivity”; in that of “QVQLVESGGGLVQAGGSLRLSCAASGSTFDTNAMGWSRPAPGKEREWVAAITWRGGRTSYADSVKGRFTISRDNAKNTVYLQMNSLKPEDTAVYYCAAGYKFGPPAAGTFSDFDYWGQGTQVTVTS”, “low polyreactivity”. With “QVQLVESGGGLVQAGGSLRLSCAASGSTFDTNAMGWYRQAPGKERELVAAISASGGSTYYADSVKGRFTISRDNAKNTVYLQMNSLKPEDTAVYYCAATSGRAFKYDYWGQGTQVTVSS”, the “polyreactivity (PSR sort gate)” value is reported as “high polyreactivity”. For the sequence “QVQLVESGGGLVQAGGSLRLSCAASGSTFDTNAMGWYRQAPGKERELVATITSIGGSKYADSVKGRFTISRDNAKNTVYLQMNSLIPEDTAVYYCATDYVEIDYDYDYWGQGTQVSVSS”, the “polyreactivity (PSR sort gate)” value is “low polyreactivity”. As to “QVQLVESGGGLVQAGGSLRLSCAASGSTFDTNAMGWYRQAPGKERELVATITSIGGSTYADSVKGRFTISRDNAKNTVYLQMNSLKPEDTAVYYCATDYVEIDYDYDYWGQGTQVTLSS”, the “polyreactivity (PSR sort gate)” value is recorded as “low polyreactivity”. Turning to “QVQLVESGGGLVQAGGSLRLSCAASGSTFDTNVMGWYRQAPGKERDLVAAIDVSGGSTYYADSVKGRFTISRDNAKNTVYLQMNSLKPVDTAVYYCAAVDGKYGMDYWGQGTQVTVST”, the “polyreactivity (PSR sort gate)” value is recorded as “low polyreactivity”. In the case of “QVQLVESGGGLVQAGGSLRLSCAASGSTFDVYAKGWYRQAPGKEWELVAAISRSGGSTYYADSVKGRFTISRDNAKNTVYLQMNSLKPEDTAVYYCNPRLARWGSDEYNYWGQGTQETVSS”, the “polyreactivity (PSR sort gate)” value was “low polyreactivity”. Regarding “QVQLVESGGGLVQAGGSLRLSCAASGSTFDVYAMGWYRQAPGKERELVAAIDVRDSTTYYADSVKGRFTISRDNAKNTVYLQMNSLKPEDTAVYYCAAEADIEYGDDDYWGQGTQVTVSS”, the “polyreactivity (PSR sort gate)” value is listed as “high polyreactivity”. “QVQLVESGGGLVQAGGSLRLSCAASGSTFDVYAMGWYRQAPGKERELVAAISYIGDNTYYADSVKGRFTISRDNAKNTVYLQMNSLKPEDTAVYYCAAEAEHYSFQDYYVEYDYWGQGTQVTVSS”: the “polyreactivity (PSR sort gate)” value is recorded as “high polyreactivity”.

“QVQLVESGGGLVQAGGSLRLSCAASGSTFDYNAMGWYRQAPGKERELVAAITTIGGSTYYADSVKGRFTISRDNAKNTVYLQMNSLKPEDTAVYYCAADLRVWGRSGYDYWGQGTQVTVSS”: the “polyreactivity (PSR sort gate)” value is reported as “low polyreactivity”. Consider “QVQLVESGGGLVQAGGSLRLSCAASGSTFDYNAMGWYRQAPGKERELVADITGSGASTSYADSVKGRFTISRDNAKNTVYLQMNSLKPEDTAVYYCAATGYSSWTYYTHEYWGQGTQVTVSS”, for which the “polyreactivity (PSR sort gate)” value was “low polyreactivity”. With “QVQLVESGGGLVQAGGSLRLSCAASGSTFDYNAMGWYRQAPGKERELVATISSSVGSTYYADSVKGRFTISRDNAKNTVNLQMNSLKPEDTAVYYCNSDYVAYGPEYDYWGQGTQVTVSS” the entry was “low polyreactivity”.

For “QVQLVESGGGLVQAGGSLRLSCAASGSTFDYNTMGWYIQAPGKERELVAAISESGGSTYYADSVKGRFTISRDNAKNTVYLQMNSLKPEDTAVYYCATDDFGGYFGEYDYWGQGTQVTVSS”, the “polyreactivity (PSR sort gate)” value is “low polyreactivity”. Consider “QVQLVESGGGLVQAGGSLRLSCAASGSTFDYSGMGWDIQAPGKERELVATITRRGGNTYYADSVKGRITISRDNANNTDYLQMNSLKPEDTAVYNCNVTPVRGSPEYGNWGQGTQVTVSS”, for which the “polyreactivity (PSR sort gate)” value is “high polyreactivity”. With “QVQLVESGGGLVQAGGSLRLSCAASGSTFDYYALGWYRQAPGKETELVAAISRSGVRTYYADSVKGRFTISRDNAKNTVYLQMNSLKPEDTAVYYCAAQVIPKFDWGQGTQVTVSS” the entry was “high polyreactivity”; with “QVQLVESGGGLVQAGGSLRLSCAASGSTFDYYAMGWYRQAPGKERELVAAISRSGGRTYYADSVKGRFTISRDNAKNTVYLQMNSLKPEDTAVYYCAADKPVIGTYSRYDYWGQGTQVTVSS”, “high polyreactivity”.

In the case of “QVQLVESGGGLVQAGGSLRLSCAASGSTFDYYAMGWYRQAPGKERELVAAISRTGGRTYYADSVKGRFTISRDNAKNTVFLQMNSLKPEDTAVYYCAARGGWVRRYGWRLDYWGQGTQVTVSS”, the “polyreactivity (PSR sort gate)” value is on record as “low polyreactivity”. “QVQLVESGGGLVQAGGSLRLSCAASGSTFDYYAMGWYRQAPGKERELVAAITSTGSTYYADSVKGRFTISRDNAKNTVYLQMNSLKPEDTAVYYCAADDIYKYYQYYAFPYYRYDYWGQGTQVTVSS”: the “polyreactivity (PSR sort gate)” value is “low polyreactivity”. As for “QVQLVESGGGLVQAGGSLRLSCAASGSTFDYYDMGWYRQAPGKARELVAAISSGGDSTYYADSVKGRFTISRDNAKNTVYLQMNSLKPEDTAVYYCAAAVYYGQSVWYYYWGQGTQVTVSS”, the “polyreactivity (PSR sort gate)” value was “high polyreactivity”. With “QVQLVESGGGLVQAGGSLRLSCAASGSTFDYYGMGWYRQAPGKERELVAAITTSGGSTYYADSVKGRFTISRDNAKNTVYLQMNSLKPEDTAVYYCAAESYWYGTSPYYYLYEYDYWGQGTQVTVSS” the entry was “high polyreactivity”. On to “QVQLVESGGGLVQAGGSLRLSCAASGSTFDYYSMGWYRQAPGKERELVAAISYSGSRTYYADSVKGRFTISRDNAKNTVYLQMNSLKPEDTAVYYCAARRGYVKGKTYDYWGQGTQVTVSS”, for which the “polyreactivity (PSR sort gate)” value is on record as “high polyreactivity”. In the case of “QVQLVESGGGLVQAGGSLRLSCAASGSTFEDYVMGWYRQAPGKERELVAAITSGDNTKYADSVKGRFTISRDNAKNTVYLQMNSLKPEDTAVYYCNADFPDVRSEYDYWGQGTQVTVSS” it was “high polyreactivity”; in that of “QVQLVESGGGLVQAGGSLRLSCAASGSTFEEYAMGWYRKAPGKERELVAGITWGGGSTYYADSVKGRFTISRDNAKNTVYLQMNSLKPEDTAVYYCVFAFEYYYWGQGTQVTVSS”, “low polyreactivity”; in that of “QVQLVESGGGLVQAGGSLRLSCAASGSTFEFNDMGWYIQAPGKERELVASIRHSDGSTYYADSVKGRFTISRDNAKNTVYLQMNSLKPEDTAVYYCNKAFQWSGGQVSYDYWGQATQVTVSS”, “low polyreactivity”. As for “QVQLVESGGGLVQAGGSLRLSCAASGSTFEGYAMGWYRQAPGKEMELVAAISSSGGTTNYADSVKGRFTISRDNAKNTVYLQMNSLKPEDTAVYYCAARKYAKYFYHYDYWGQGTQVTVSS”, the “polyreactivity (PSR sort gate)” value was “low polyreactivity”. In the case of “QVQLVESGGGLVQAGGSLRLSCAASGSTFENNAMGWYRQAPGKERELVASSTNYADSVKGRFTISRDNAKNTVYLQMNSLKPEDTAVYYCNLDTNSSYEFNSWGQGTQVTVSS” it was “low polyreactivity”; in that of “QVQLVESGGGLVQAGGSLRLSCAASGSTFENNVMAWYRQAPGKERELVATITWGDGSTSYADSVKGRFTISRDNAKNTVYLQMNSLKPEDTAVYYCAADSAENVYRGYYWGQGTQVTVSS”, “low polyreactivity”; in that of “QVQLVESGGGLVQAGGSLRLSCAASGSTFESNAMGWYRQAPGKERELVASISGSGGSTFYADSVKGRFTISRDNAKNTVYLQMNSLKPEDTAVYYCAAYKEPYYEEYGYWGQGTQVTVSS”, “low polyreactivity”. In the case of “QVQLVESGGGLVQAGGSLRLSCAASGSTFESNFMGWYRQAPGKEWELVAAITWTGGSTYYADSVKGRFTISRDNAKNNVYLQMNSLKPVDTAVYYCATYDPGPLLGSDYWGHGTQVTVSS” it was “low polyreactivity”; in that of “QVQLVESGGGLVQAGGSLRLSCAASGSTFESYAMGWYRQAPGKERELVAAISRRGGRTYYADSVKGRFTISRDNAKNTVYLQMYSLKPEDTAVYYCATDSSYYGSDDYWGQGTQVNVSS”, “high polyreactivity”; in that of “QVQLVESGGGLVQAGGSLRLSCAASGSTFETNAMGWYRQAPGKERELVAAISVSGGDTYYADSVKGRFTISRDNAKNTVYLQMNSLKPEDTAVYYCAAAERGYIFPDRMRYDYWGQGTQVTVSS”, “low polyreactivity”. Regarding “QVQLVESGGGLVQAGGSLRLSCAASGSTFETNGMGWYRQAPGKERELVAAITSGGSTYYADSVKGRFTISRDNAKNTVYLQMNSLKPEDTAVYYCAAVDGGWAYDPYDYWGQGTQVTVSS”, the “polyreactivity (PSR sort gate)” value is “low polyreactivity”. In the case of “QVQLVESGGGLVQAGGSLRLSCAASGSTFEVNAMGWYRQAPGKERELVAAISSSAGDTYYADSVKGRFTISRDNAKNTVYLQMNSLKPEDTAVYYCAAKGFPRSGYPYQAQHMYYWGQGTQVTVSS” it was “low polyreactivity”; in that of “QVQLVESGGGLVQAGGSLRLSCAASGSTFEYNAMGWYRQAPGKERELVASSTNYADSVKGRFTISRDNAKNTVYLQMNSLKPEDTAVYYFAREQGVNRNHDYWGQGTQVTVSS”, “low polyreactivity”; in that of “QVQLVESGGGLVQAGGSLRLSCAASGSTFEYNAMGWYRQAPGKERELVASSTNYADSVKGRFTISRDNAKNTVYLQMNSLKPEVTAVYYCAAYQDYVYSESLFSVSARMYYWGQGTQVTVSS”, “low polyreactivity”.

As to “QVQLVESGGGLVQAGGSLRLSCAASGSTFEYYAMGWYRQAPGKERELLATISIDGRTNYADSVKGRFTISRDNAKNTVYLQLYSVKPEDTAVYYCGARPYWRHRYDYWGQGTQVTVSS”, the “polyreactivity (PSR sort gate)” value was “low polyreactivity”.
